Experimental data published in patent US20130315914A1 (NOVIMMUNE, published 2013).

T1: cynomolgus monkey TLR4 expressed on stably transfected CHO-K1 cells (cynomolgus monkey, UniProt Q9TSP2 24-826 (Papio anubis entry))
T1 construct: Transfected alone; also called CHO cells expressing the cynomolgus monkey TLR4
T1 chain: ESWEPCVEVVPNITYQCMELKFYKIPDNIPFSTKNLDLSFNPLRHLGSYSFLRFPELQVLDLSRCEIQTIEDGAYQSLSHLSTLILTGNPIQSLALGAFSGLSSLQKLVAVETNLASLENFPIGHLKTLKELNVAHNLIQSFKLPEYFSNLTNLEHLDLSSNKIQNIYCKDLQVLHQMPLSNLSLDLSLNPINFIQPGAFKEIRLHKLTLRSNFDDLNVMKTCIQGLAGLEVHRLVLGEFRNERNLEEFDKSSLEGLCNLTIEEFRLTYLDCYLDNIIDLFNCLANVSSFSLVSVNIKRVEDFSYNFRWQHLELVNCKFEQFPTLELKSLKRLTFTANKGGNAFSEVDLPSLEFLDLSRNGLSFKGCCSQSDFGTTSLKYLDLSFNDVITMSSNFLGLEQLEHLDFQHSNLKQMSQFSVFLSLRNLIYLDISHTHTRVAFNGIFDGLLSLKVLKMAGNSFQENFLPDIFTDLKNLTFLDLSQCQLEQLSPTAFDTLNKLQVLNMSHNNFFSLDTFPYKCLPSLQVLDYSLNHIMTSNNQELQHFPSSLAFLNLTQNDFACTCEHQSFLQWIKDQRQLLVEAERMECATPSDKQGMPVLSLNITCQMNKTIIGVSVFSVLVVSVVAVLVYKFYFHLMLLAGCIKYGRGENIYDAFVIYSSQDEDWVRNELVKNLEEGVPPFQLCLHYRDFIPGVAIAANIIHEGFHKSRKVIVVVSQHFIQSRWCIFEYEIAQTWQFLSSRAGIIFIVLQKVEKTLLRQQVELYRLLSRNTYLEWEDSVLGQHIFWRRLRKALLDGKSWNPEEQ


Tests used:
[1] = biological target: human TLR4 in human whole blood (human); assay: cell-based or functional assay
[2] = biological target: T2, soluble histidine-tagged form of human TLR4/MD2 complex (human, UniProt Q9Y6Y9 19-160); assay: competitive ELISA; 15C1 reference EC50 divided by variant EC50
T2 sequence (Q9Y6Y9 19-160, one chain of several): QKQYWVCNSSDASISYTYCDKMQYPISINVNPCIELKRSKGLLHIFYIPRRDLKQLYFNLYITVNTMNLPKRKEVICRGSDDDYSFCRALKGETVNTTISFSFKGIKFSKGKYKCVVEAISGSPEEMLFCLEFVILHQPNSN
Description: (§1) The VH and VL cDNA sequences in their appropriate expression vectors were transfected into mammalian cells using the Fugene 6 Transfection Reagent (Roche, Basel, Switzerland). Briefly, Peak cells were cultured in 6-well plates at a concentration of 6×10⁵ cells per well in 2 mL culture media containing fetal bovine serum. The expression vectors, encoding the candidate VH and VL sequences, were co-transfected into the cells using the Fugene 6 Transfection Reagent according to manufacturer's instructions. One day following transfection, the culture media was aspirated, and 3 mL of fresh serum-free media was added to cells and cultured for three days at 37° C. Following three days culture period, the supernatant was harvested for IgG purified on protein G-Sepharose 4B fast flow columns (Sigma, St. Louis, Mo.) according to manufacturer's instructions. Briefly, supernatants from transfected cells were incubated overnight at 4° C. with ImmunoPure (G) IgG binding buffer (Pierce, Rockford Ill.). Samples were then passed over Protein G-Sepharose 4B fast flow columns and the IgG consequently purified using elution buffer. The eluted IgG fraction was then dialyzed against PBS and the IgG content quantified by absorption at 280 nm. Purity and IgG integrity were verified by SDS-PAGE. Relative binding potency of 1E11 variants was assessed by competitive ELISA. Briefly, 15C1 antibody was coated overnight in a 96-well Maxisorp plate and then blocked with PBS-BSA. The 15C1 reference antibody and affinity matured variants of 1E11 were added to the plate at a fixed concentration and a 3.5-fold serial dilution of the samples was performed. Then, soluble histidine-tagged form of human TLR4/MD2 complex was added to the plate at a fixed concentration. After incubation one hour at 37° C., the plate was washed and a solution of Penta-His-HRP antibody was distributed, this step was followed by an additional incubation time of one hour at 37° C. Finally, the plate was washed and TMB was added for colorimetric revelation, the enzymatic reaction is stopped by H₂SO₄ solution. The results were determined according to the absorbance at 450 nm. The relative binding potency was calculated by dividing the reference EC₅₀ with affinity matured variants EC₅₀ (Table 8).

[3] = biological target: T1, cynomolgus monkey TLR4 expressed on …; assay: summary grade (species binding potential); assay not given
[4] = biological target: T2, soluble histidine-tagged form of human …; assay: competitive ELISA, as retold in Example 9 (Table 8 prints 39 for this clone)
Description: Briefly, supernatants from transfected cells were incubated overnight at 4° C. with ImmunoPure (G) IgG binding buffer (Pierce, Rockford Ill.). Samples were then passed over Protein G-Sepharose 4B fast flow columns and the IgG consequently purified using elution buffer. The eluted IgG fraction was then dialyzed against PBS and the IgG content quantified by absorption at 280 nm. Purity and IgG integrity were verified by SDS-PAGE. Relative binding potency of 1E11 variants was assessed by competitive ELISA. Briefly, 15C1 antibody was coated overnight in a 96-well Maxisorp plate and then blocked with PBS-BSA. The 15C1 reference antibody and affinity matured variants of 1E11 were added to the plate at a fixed concentration and a 3.5-fold serial dilution of the samples was performed. Then, soluble histidine-tagged form of human TLR4/MD2 complex was added to the plate at a fixed concentration. After incubation one hour at 37° C., the plate was washed and a solution of Penta-His-HRP antibody was distributed, this step was followed by an additional incubation time of one hour at 37° C. Finally, the plate was washed and TMB was added for colorimetric revelation, the enzymatic reaction is stopped by H₂SO₄ solution. The results were determined according to the absorbance at 450 nm. The relative binding potency was calculated by dividing the reference EC₅₀ with affinity matured variants EC₅₀ (Table 8). […]

[5] = biological target: T2, soluble histidine-tagged form of human …; assay: competitive ELISA; coated 15C1 as competitor, soluble His-tagged human TLR4/MD2, Penta-His-HRP
Description: as §1

[6] = biological target: T1, cynomolgus monkey TLR4 expressed on …; assay: flow cytometry; purified IgG on CHO cells expressing cynomolgus TLR4
Description: 10⁵ CHO cells or CHO cells expressing the cynomolgus monkey TLR4 were incubated in phosphate-buffered saline, 2% bovine serum albumin with different concentrations of purified antibodies selected by FMAT (1A1, 1A6, 1B12, 1C7, 1C10, 1C12, 1D10, 1E11, 1G12) with 15C1 as control. Cells were washed in phosphate-buffered saline, 2% bovine serum albumin and incubated in Alexa Fluor® 647 goat anti human IgG (H+L) (1:200; Invitrogen). Cells were analyzed using a FACS calibur cytometer (BD Biosciences).

[7] = biological target: T2, soluble histidine-tagged form of human …; assay: competitive ELISA; lower end of the range, tied to 1E11.C4 by Table 8 (2.5 there)
Description: The VH and VL cDNA sequences in their appropriate expression vectors were transfected into mammalian cells using the Fugene 6 Transfection Reagent (Roche, Basel, Switzerland). Briefly, Peak cells were cultured in 6-well plates at a concentration of 6×10⁵ cells per well in 2 mL culture media containing fetal bovine serum. The expression vectors, encoding the candidate VH and VL sequences, were co-transfected into the cells using the Fugene 6 Transfection Reagent according to manufacturer's instructions. One day following transfection, the culture media was aspirated, and 3 mL of fresh serum-free media was added to cells and cultured for three days at 37° C. Following three days culture period, the supernatant was harvested for IgG purified on protein G-Sepharose 4B fast flow columns (Sigma, St. Louis, Mo.) according to manufacturer's instructions. Briefly, supernatants from transfected cells were incubated overnight at 4° C. with ImmunoPure (G) IgG binding buffer (Pierce, Rockford Ill.). […] The eluted IgG fraction was then dialyzed against PBS and the IgG content quantified by absorption at 280 nm. […] Relative binding potency of 1E11 variants was assessed by competitive ELISA. […] The results were determined according to the absorbance at 450 nm. The relative binding potency was calculated by dividing the reference EC₅₀ with affinity matured variants EC₅₀ (Table 8).

| IC50, inhibition of IL-6 production in human whole blood assay [1] [µg/mL] | fold better than 15C1 at blocking human TLR4 (human whole blood assay) [1] [fold] | Relative binding potency increase [2] [fold] | binding result [3] | increase in binding potency (fold, compared to 15C1) [4] [fold] | EC50 [5] [µg/mL] | binding result [6] | relative binding potency (fold-increase compared to 15C1) [7] [fold] | Binder |
| --- | --- | --- | --- | --- | --- | --- | --- | --- |
| 0.05 | 5 | 39 | binds | 40 | 0.016 | – | – | 1E11.C2E3 antibody (IgG1) (antibody, V domains shown) VH: QVQLQESGPGLVKPSDTLSLTCAVSGYPIRFGYSWHWIRQPPGKGLEWMGYIHYSGYTDFNPSLKTRITISRDTSKNQFSLKLSSVTAVDTAVYYCARKDSGNYFPYWGQGTLVTVSS VL: EIVLTQSPDFQSVTPKEKVTITCRASQSISDHLHWYQQKPDQSPKLLIKYASHAISGVPSRFSGSGSGTDFTLTINSLEAEDAATYYCQQGYDFPLTFGGGTKVEIK |
| ~0.22 | – | – | – | – | 0.63 | no binding | – | humanized anti-TLR4 antibody 15C1 (antibody, V domains shown, also called 15C1 Mab; parental antibody 15C1) VH: QVQLQESGPGLVKPSDTLSLTCAVSGYSITGGYSWHWIRQPPGKGLEWMGYIHYSGYTDFNPSLKTRITISRDTSKNQFSLKLSSVTAVDTAVYYCARKDPSDAFPYWGQGTLVTVSS VL: EIVLTQSPDFQSVTPKEKVTITCRASQSISDHLHWYQQKPDQSPKLLIKYASHAISGVPSRFSGSGSGTDFTLTINSLEAEDAATYYCQQGHSFPLTFGGGTKVEIK |
| – | – | 2.5 | binds | – | 0.251 | – | 3 | 1E11.C4 antibody (IgG1) (antibody, V domains shown) VH: QVQLQESGPGLVKPSDTLSLTCAVSGFPIGQGYSWHWIRQPPGKGLEWMGYIHYSGYTDFNPSLKTRITISRDTSKNQFSLKLSSVTAVDTAVYYCARKDSGNYFPYWGQGTLVTVSS VL: EIVLTQSPDFQSVTPKEKVTITCRASQSISDHLHWYQQKPDQSPKLLIKYASHAISGVPSRFSGSGSGTDFTLTINSLEAEDAATYYCQQGHSFPLTFGGGTKVEIK |
